# B1: purified TRIP-Br1 (His-tagged at both N and C termini) (natural protein, human, UniProt Q9UHV2 1-236, looked up)
# chain: MLSKGLKRKREEEEEKEPLAVDSWWLDPGHTAVAQAPPAVASSSLFDLSVLKLHHSLQQSEPDLRHLVLVVNTLRRIQASMAPAAALPPVPSPPAAPSVADNLLASSDAALSASMASLLEDLSHIEGLSQAPQPLADEGPPGRSIGGAAPSLGALDLLGPATGCLLDDGLEGLFEDIDTSMYDNELWAPASEGLKPGPEDGPGKEEAPELDEAELDYLMDVLVGTQALERPPGPGR
# notes: TRIP-Br1 (SERTAD1), human, cDNA amplified from Calu-3 cells; The methods call it His-TRIP-Br1; the legends say His-tagged at both termini; also called His-TRIP-Br1; source: E. coli BL21 (codon plus), purified (Ni-NTA); not shown: His, N-terminal, kept; His, C-terminal, kept
# B2: GST-TRIP-Br1 fusion protein (full-length TRIP-Br1 fused with GST) (natural protein, human, UniProt Q9UHV2 1-236, looked up)
# chain: B1 chain
# notes: also called Sertad1; SEI-1; source: E. coli BL21 codon plus, purified (glutathione-Sepharose)
# Legend:
# [1] = target: T1, FLAG-His-tagged AC1-M (AC1 amino acids 236-612) (bovine, UniProt P19754 236-612); assay: pull-down; pairwise pull-down, two purified proteins from E. coli, 5 μg of each, FLAG-His-tagged AC1 fragment held on anti-FLAG M2 affinity gel, Co-IP buffer, 500 μL, 2 hr at 4°C; washed with PBS containing 1% Triton X-100; western blot; details: both partners purified
# T1 construct: Ends of the tags as in the printed name His-AC1-M-FLAG; also called His-AC1-M-FLAG; M, cytosolic region between the 2 transmembrane domains; not shown: His, N-terminal, kept; FLAG, C-terminal, kept
# [2] = target: T2, His-XIAP purified from E. coli (human, UniProt P98170 1-497); assay: pull-down; GST, GST-TRIP-Br1 or GST-TRIP-Br1 truncation mutants used to capture His-XIAP purified from E. coli; details: both partners purified
# T2 construct: also called purified XIAP; source: E. coli BL21, purified (Ni-NTA, with 200 μM zinc sulfate)
# T2 sequence (P98170 whole entry, the tested form may be a part): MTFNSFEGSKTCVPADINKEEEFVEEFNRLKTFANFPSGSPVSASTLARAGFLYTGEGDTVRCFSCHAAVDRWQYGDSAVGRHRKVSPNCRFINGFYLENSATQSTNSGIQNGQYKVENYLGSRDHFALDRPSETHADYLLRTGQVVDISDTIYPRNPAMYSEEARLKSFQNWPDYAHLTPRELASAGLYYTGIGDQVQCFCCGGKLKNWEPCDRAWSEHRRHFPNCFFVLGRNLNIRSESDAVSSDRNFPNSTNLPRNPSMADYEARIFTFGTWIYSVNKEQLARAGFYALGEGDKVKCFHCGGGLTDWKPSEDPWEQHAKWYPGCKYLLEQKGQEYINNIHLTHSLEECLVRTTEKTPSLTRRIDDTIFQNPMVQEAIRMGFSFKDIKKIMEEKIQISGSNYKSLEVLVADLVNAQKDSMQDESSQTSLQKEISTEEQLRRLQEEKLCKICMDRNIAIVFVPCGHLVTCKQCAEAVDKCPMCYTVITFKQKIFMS
# T1 sequence (P19754 236-612): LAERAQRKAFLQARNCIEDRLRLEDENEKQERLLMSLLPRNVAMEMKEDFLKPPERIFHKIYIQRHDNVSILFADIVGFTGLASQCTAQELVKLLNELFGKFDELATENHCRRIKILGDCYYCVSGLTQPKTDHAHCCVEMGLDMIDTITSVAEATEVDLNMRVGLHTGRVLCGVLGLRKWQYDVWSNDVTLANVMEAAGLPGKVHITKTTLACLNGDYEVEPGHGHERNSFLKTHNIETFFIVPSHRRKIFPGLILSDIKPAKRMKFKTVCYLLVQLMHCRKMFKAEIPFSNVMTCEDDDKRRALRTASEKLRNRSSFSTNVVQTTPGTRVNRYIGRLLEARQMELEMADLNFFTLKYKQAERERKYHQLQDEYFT
Binder,binding result [1],binding result [2]
B1,binds,–
B2,–,binds
